Our source for the EC50 and EC50(wt)/EC50(mut) values is patent US6136558A, “Heregulin variants” (Genentech, Inc., priority 1998, dated 2000).

Substitutions are numbered along the chain they refer to. Names may count otherwise.

Assay [1] deals with ErbB-3 receptor-Ig fusion (human) (UniProt P21860). The assay is described as follows: phage ELISA, soluble ErbB-3-Ig as competitor. Background: In an ELISA, binding on a coated surface is turned into a signal by an enzyme label.
Assay [2] deals with ErbB-4 receptor-Ig fusion (human) (UniProt Q15303). The assay is described as follows: phage ELISA, soluble ErbB-4-Ig as competitor.
For assay [3], the target named is ErbB-3 receptor-Ig fusion (human) (UniProt P21860). In words: phage ELISA, ratio to wild-type HRG8 phage.
Assay [4] addresses ErbB-4 receptor-Ig fusion (human) (UniProt Q15303). The assay is described as follows: displacement of 125I-HRG-β1 177-244 from ErbB-4-Ig. In general terms: Loss of bound radioactivity is the signal in a displacement assay; it reports binding, not function.
The target of assay [5] is ErbB-3 receptor-Ig fusion (human) (UniProt P21860). In words: displacement of 125I-HRG-β1 177-244 from ErbB-3-Ig.

The term EC50 denotes the concentration giving half of the maximal effect. Turning to HRG-β1 177-244 G194A on phage (ligand), the EC50 in assay [1] is 0.5 µM; in assay [2], 0.065 µM.

On to HRG-β1 177-244 G193A on phage (ligand), for which the 50% effective concentration (EC50) in assay [1] was > 1 µM; in assay [2] it was 0.023 µM.

In the case of HRG-β1 177-244 H178A on phage (ligand), the figures for the EC50 in assay [1] and in assay [2] were > 1 µM and 0.032 µM, respectively.

In the case of HRG-β1 177-244 S177A on phage (ligand), the EC50 in assay [1] was 0.067 µM; in assay [2] it was 0.083 µM.

As for HRG-β1 177-244 E195A on phage (ligand), the EC50 in assay [1] is > 1 µM; in assay [2], 0.024 µM.

Consider HRG-β1 177-244 E215A on phage (ligand), for which the EC50 stood at 0.051 µM in assay [1] and 0.032 µM in assay [2].

B1: HRG63 (phage) (ligand)
chain: SHLVKCAEKEKTFCVNGGECFMVKDPSRYLCKCPNEFTGDRCQNYVMAS
As for B1, the EC50(wt)/EC50(mut) in assay [3] turned out to be 1.1.

B2: HRG48 (phage) (ligand)
chain: B1 chain with P26Y, S27G, R28Y, Y29L, L30M, M47I
In the case of B2, the EC50(wt)/EC50(mut) in assay [3] was 49.

B3: E3 (phage) (ligand)
chain: B1 chain with P26Y, S27R, R28Y, Y29R, L30M, M47I
As for B3, the EC50(wt)/EC50(mut) in assay [3] came out at 16.

B4: D1 (phage) (ligand)
chain: SHLVKCAEKEKTFCVNGGECYKVRILSNPSRYLCKCPNEFTGDRCQNYVIAS
In the case of B4, the EC50(wt)/EC50(mut) in assay [3] is 11.

B5: HRG59 (phage) (ligand)
chain: B4 chain with K22R, R24K, I25T
In the case of B5, the EC50(wt)/EC50(mut) in assay [3] amounted to 26.

B6: B5 (phage) (ligand)
chain: SHLVKCGWDREGFCVNGGECFMVKDLSNPSRYLCKCPNEFTGDRCQNYVIAS
For B6, the EC50(wt)/EC50(mut) in assay [3] amounted to 26.

B7: B10 (phage) (ligand)
chain: B6 chain with G7D, W8K, D9S
On to B7, for which, in assay [3], the EC50(wt)/EC50(mut) was determined as 9.3.

B8: HRG37 (phage) (ligand)
chain: B6 chain with S1W, H2E, K5P
As to B8, in assay [3], the EC50(wt)/EC50(mut) is 13.

B9: HRG53 (phage) (ligand)
chain: B6 chain with W8E, D9E, F21Y, M22R, D25T, I50M
As to B9, the EC50(wt)/EC50(mut) in assay [3] worked out at 26.

B10: HRG56 (phage) (ligand)
chain: B6 chain with W8E, D9E
As for B10, the EC50(wt)/EC50(mut) in assay [3] came out at 31.

B11: HRG60 (phage) (ligand)
chain: B6 chain with W8E, D9E, F21Y, M22R, D25T
As for B11, the EC50(wt)/EC50(mut) in assay [3] turned out to be 63.

B12: A1 (phage) (ligand)
chain: WRLVPCAEKEKTFCVNGGECFMVKDLSNPSRYLCKCPNEFTGDRCQNYVMAS
For the molecule B12, in assay [3], the EC50(wt)/EC50(mut) turned out to be 0.55.

B13: A4 (phage) (ligand)
chain: B12 chain with R2S, P5K
Turning to B13, the EC50(wt)/EC50(mut) in assay [3] was < 0.3.

B14: H5 (phage) (ligand)
chain: B12 chain with W1S, R2H, P5K, D43E
Regarding B14, the EC50(wt)/EC50(mut) in assay [3] was 1.5.

B15: A2 (phage) (ligand)
chain: B12 chain with R2S, V4Q
B15: the EC50(wt)/EC50(mut) in assay [3] came out at 0.87.

B16: I1 (phage) (ligand)
chain: B4 chain with Y21F, K22M, R24K, I25D, N47W
Regarding B16, the EC50(wt)/EC50(mut) in assay [3] worked out at 13.

B17: D10 (phage) (ligand)
chain: B4 chain with K22M, R24K, I25T, I50M
With B17, the EC50(wt)/EC50(mut) in assay [3] was found to be 2.1.

B18: HRG57 (phage) (ligand)
chain: SHLVKCAEKEKTFCVNGGECYRVKTYGYLMCKCPNEFTGDRCQNYVMAS
With B18, in assay [3], the EC50(wt)/EC50(mut) amounted to 24.

B19: HRG71 (phage) (ligand)
chain: B18 chain with N44H, M47I
For B19, in assay [3], the EC50(wt)/EC50(mut) is 79.

B20: HRG54 (phage) (ligand)
chain: SHLVKCGEEREGFCVNGGECFMVKDYGYLMCKCPNEFTGDRCQNYVMAS
For the molecule B20, the EC50(wt)/EC50(mut) in assay [3] came to 12.

B21: HRG62 (phage) (ligand)
chain: B20 chain with F21Y, M22R, D25T, M47I
B21: the EC50(wt)/EC50(mut) in assay [3] was 32.

B22: HRG61 (phage) (ligand)
chain: B20 chain with M47I
B22: the EC50(wt)/EC50(mut) in assay [3] was determined as 29.

B23: HRG55 (phage) (ligand)
chain: B20 chain with F21Y, M22R, D25T
With B23, the EC50(wt)/EC50(mut) in assay [3] worked out at 13.

B24: Trx-HRG-β1 146-244 S177A fusion (ligand)
chain: DDDDKAYVSSESPIRISVSTEGANTSSSTSTSTTGTAHLVKCAEKEKTFCVNGGECFMVKDLSNPSRYLCKCPNEFTGDRCQNYVMASFYKHLGIEFMEAEELY
Consider B24, for which the concentration giving a half-maximal response (EC50) in assay [4] was determined as 0.0546 µM; in assay [5] it was 0.129 µM.

B25: Trx-HRG-β1 146-244 E195A fusion (ligand)
chain: B24 chain with A37S, E55A
With B25, the EC50 in assay [4] was found to be 0.0132 µM; in assay [5], 0.042 µM.

B26: Trx-HRG-β1 146-244 L179A fusion (ligand)
chain: B24 chain with A37S, L39A
Regarding B26, the concentration giving a half-maximal response (EC50) in assay [4] was found to be 0.0517 µM; in assay [5], 0.394 µM.

B27: Trx-HRG-β1 146-244 Y224A fusion (ligand)
chain: B24 chain with A37S, Y84A
For the molecule B27, the EC50 in assay [4] is 0.0245 µM; in assay [5] it was 0.339 µM.

B28: Trx-HRG-β1 146-244 H178A fusion (ligand)
chain: B24 chain with A37S, H38A
In the case of B28, the EC50 in assay [4] is 0.138 µM; in assay [5] it was 0.476 µM.

B29: Trx-HRG-β1 146-244 F189A fusion (ligand)
chain: B24 chain with A37S, F49A
With B29, the half-maximal effective concentration (EC50) in assay [4] stood at 0.565 µM; in assay [5], 0.975 µM.

B30: Trx-HRG-β1 146-244 N192A fusion (ligand)
chain: B24 chain with A37S, N52A
Regarding B30, the figures for the EC50 in assay [4] and in assay [5] were 0.696 µM and 1.64 µM, respectively.

B31: Trx-HRG-β1 146-244 E215A fusion (ligand)
chain: B24 chain with A37S, E75A
As for B31, the 50% effective concentration (EC50) in assay [4] amounted to 0.104 µM; in assay [5], 0.156 µM.

B32: Trx-HRG-β1 146-244 T217A fusion (ligand)
chain: B24 chain with A37S, T77A
On to B32, for which the concentration for a half-maximal effect (EC50) in assay [4] was found to be 0.0327 µM; in assay [5] it was 0.145 µM.

B33: Trx-HRG-β1 146-244 P205A fusion (ligand)
chain: B24 chain with A37S, P65A
B33: the 50% effective concentration (EC50) in assay [4] was found to be 0.0342 µM; in assay [5] it was 0.0395 µM.

B34: Trx-HRG-β1 146-244 G193A fusion (ligand)
chain: B24 chain with A37S, G53A
With B34, the EC50 was found to be 0.0763 µM in assay [4] and 0.0269 µM in assay [5].

B35: Trx-HRG-β1 146-244 K200A fusion (ligand)
chain: B24 chain with A37S, K60A
Turning to B35, the results for the EC50 in assay [4] and in assay [5] were 0.0169 µM and 0.0454 µM, respectively.

B36: Trx-HRG-β1 146-244 V199A fusion (ligand)
chain: B24 chain with A37S, V59A
Consider B36, for which the EC50 in assay [4] is 0.246 µM.

B37: Trx-HRG-β1 146-244 G194A fusion (ligand)
chain: B24 chain with A37S, G54A
For the molecule B37, the concentration giving a half-maximal response (EC50) in assay [4] worked out at 0.275 µM; in assay [5] it was 1.21 µM.

B38: Trx-HRG-β1 146-244 K211A fusion (ligand)
chain: B24 chain with A37S, K71A
Take B38: the figures for the EC50 in assay [4] and in assay [5] were 0.124 µM and 0.248 µM, respectively.

B39: Trx-HRG-β1 146-244 F216A fusion (ligand)
chain: B24 chain with A37S, F76A
In the case of B39, the EC50 is 0.173 µM in assay [4] and 2.55 µM in assay [5].

B40: Trx-HRG-β1 146-244 R207A fusion (ligand)
chain: B24 chain with A37S, R67A
Take B40: the 50% effective concentration (EC50) was 0.0243 µM in assay [4] and 0.245 µM in assay [5].

B41: Trx-HRG-β1 146-244 F229A fusion (ligand)
chain: B24 chain with A37S, F89A
For B41, the concentration giving a half-maximal response (EC50) came out at 0.0899 µM in assay [4] and 0.177 µM in assay [5].

B42: Trx-HRG-β1 146-244 G218A fusion (ligand)
chain: B24 chain with A37S, G78A
As for B42, the EC50 is 0.608 µM in assay [4] and 0.668 µM in assay [5].

B43: recombinantly produced HRG-β1 177-244 (ligand)
chain: SHLVKCAEKEKTFCVNGGECFMVKDLSNPSRYLCKCPNEFTGDRCQNYVMASFYKHLGIEFMEAEELY
B43: the results for the EC50 in assay [4] and in assay [5] were 0.0148 µM and 0.009 µM, respectively.
